In publication PMC8222357, “The structure of ORC–Cdc6 on an origin DNA reveals the mechanism of ORC activation by the replication initiator Cdc6” (Nature Communications, 2021):

B2: Orc4, subunit of S. cerevisiae ORC (natural protein)
chain: MTISEARLSPQVNLLPIKRHSNEEVEETAAILKKRTIDNEKCKDSDPGFGSLQRRLLQQLYGTLPTDEKIIFTYLQDCQQEIDRIIKQSIIQKESHSVILVGPRQSYKTYLLDYELSLLQQSYKEQFITIRLNGFIHSEQTAINGIATQLEQQLQKIHGSEEKIDDTSLETISSGSLTEVFEKILLLLDSTTKTRNEDSGEVDRESITKITVVFIFDEIDTFAGPVRQTLLYNLFDMVEHSRVPVCIFGCTTKLNILEYLEKRVKSRFSQRVIYMPQIQNLDDMVDAVRNLLTVRSEISPWVSQWNETLEKELSDPRSNLNRHIRMNFETFRSLPTLKNSIIPLVATSKNFGSLCTAIKSCSFLDIYNKNQLSNNLTGRLQSLSDLELAILISAARVALRAKDGSFNFNLAYAEYEKMIKAINSRIPTVAPTTNVGTGQSTFSIDNTIKLWLKKDVKNVWENLVQLDFFTEKSAVGLRDNATAAFYASNYQFQGTMIPFDLRSYQMQIILQELRRIIPKSNMYYSWTQL
notes: Orc4, S. cerevisiae, as the Orc4 chain of m1; Stood in the assay as a subunit of the whole ORC; written on its own for the contacts seen in the structure; source: purified as part of ORC, as described previously with minor modifications

How the values were obtained:
Experiment in all cases: cryo-EM structure; ORC first bound to 85 bp ARS1 origin dsDNA, then Cdc6 added (about 1 μM ORC:1.25 μM DNA:6.4 μM Cdc6), 5 mM ATPγS, 5 mM DTT, on ice; no cross-linking agent; maps at 3.3 and 3.6 Å
Settings in all cases: both partners purified
[1] = molecular target: T1, origin recognition complex (ORC; Orc1-6), S. cerevisiae (S. cerevisiae, UniProt P54784 1-914; P32833 1-620; P54790 1-616; P54791 1-529; P50874 1-479; P38826 …)
T1 construct: Orc1, S. cerevisiae, subunit of ORC; BAH domain disordered in the map; Orc2, S. cerevisiae, subunit of ORC; WHD flexible and not visible in the map; Orc3, S. cerevisiae, subunit of ORC; Orc4, S. cerevisiae, subunit of ORC; Orc5, S. cerevisiae, subunit of ORC; Orc6, S. cerevisiae, subunit of ORC; TFIIB-A domain disordered in the map; also called yeast ORC; source: purified as described previously, …
T1 sequence (P32833 whole entry, chain 2 of 2, the tested form may be a part): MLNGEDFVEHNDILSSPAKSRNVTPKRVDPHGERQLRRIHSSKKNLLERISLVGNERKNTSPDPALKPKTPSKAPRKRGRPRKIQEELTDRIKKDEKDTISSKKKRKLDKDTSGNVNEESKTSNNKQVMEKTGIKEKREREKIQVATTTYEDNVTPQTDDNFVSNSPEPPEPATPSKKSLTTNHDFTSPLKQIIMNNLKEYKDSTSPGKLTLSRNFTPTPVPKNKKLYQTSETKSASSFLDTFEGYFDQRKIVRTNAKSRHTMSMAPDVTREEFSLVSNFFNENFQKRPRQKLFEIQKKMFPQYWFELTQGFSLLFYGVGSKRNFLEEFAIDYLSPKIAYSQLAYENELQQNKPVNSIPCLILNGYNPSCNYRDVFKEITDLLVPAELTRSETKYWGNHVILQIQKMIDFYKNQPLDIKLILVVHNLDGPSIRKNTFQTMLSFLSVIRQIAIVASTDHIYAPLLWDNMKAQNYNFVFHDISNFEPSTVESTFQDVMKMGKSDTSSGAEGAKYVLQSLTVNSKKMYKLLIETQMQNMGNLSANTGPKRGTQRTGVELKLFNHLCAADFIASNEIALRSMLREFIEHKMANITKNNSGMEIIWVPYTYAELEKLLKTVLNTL
T1 sequence (P38826 whole entry, chain 6 of 2, the tested form may be a part): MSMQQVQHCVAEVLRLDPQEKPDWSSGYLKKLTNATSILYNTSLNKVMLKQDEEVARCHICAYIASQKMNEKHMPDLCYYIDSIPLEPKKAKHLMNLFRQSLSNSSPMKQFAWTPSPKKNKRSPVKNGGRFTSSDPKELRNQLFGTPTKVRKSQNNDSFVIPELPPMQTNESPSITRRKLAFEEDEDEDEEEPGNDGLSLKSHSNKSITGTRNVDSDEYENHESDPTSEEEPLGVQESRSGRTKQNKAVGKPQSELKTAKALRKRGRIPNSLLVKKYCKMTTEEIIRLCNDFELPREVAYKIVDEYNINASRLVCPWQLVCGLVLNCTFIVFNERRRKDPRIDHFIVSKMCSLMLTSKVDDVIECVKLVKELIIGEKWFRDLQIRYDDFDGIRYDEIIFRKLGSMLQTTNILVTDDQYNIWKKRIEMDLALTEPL

[2] = molecular target: T2, Orc1, subunit of S. cerevisiae ORC (S. cerevisiae, UniProt P54784 1-914)
T2 construct: Orc1, S. cerevisiae, as the Orc1 chain of m1; Stood in the assay as a subunit of the whole ORC; written on its own for the contacts seen in the structure; source: purified as part of ORC, as described previously with minor modifications
T2 sequence: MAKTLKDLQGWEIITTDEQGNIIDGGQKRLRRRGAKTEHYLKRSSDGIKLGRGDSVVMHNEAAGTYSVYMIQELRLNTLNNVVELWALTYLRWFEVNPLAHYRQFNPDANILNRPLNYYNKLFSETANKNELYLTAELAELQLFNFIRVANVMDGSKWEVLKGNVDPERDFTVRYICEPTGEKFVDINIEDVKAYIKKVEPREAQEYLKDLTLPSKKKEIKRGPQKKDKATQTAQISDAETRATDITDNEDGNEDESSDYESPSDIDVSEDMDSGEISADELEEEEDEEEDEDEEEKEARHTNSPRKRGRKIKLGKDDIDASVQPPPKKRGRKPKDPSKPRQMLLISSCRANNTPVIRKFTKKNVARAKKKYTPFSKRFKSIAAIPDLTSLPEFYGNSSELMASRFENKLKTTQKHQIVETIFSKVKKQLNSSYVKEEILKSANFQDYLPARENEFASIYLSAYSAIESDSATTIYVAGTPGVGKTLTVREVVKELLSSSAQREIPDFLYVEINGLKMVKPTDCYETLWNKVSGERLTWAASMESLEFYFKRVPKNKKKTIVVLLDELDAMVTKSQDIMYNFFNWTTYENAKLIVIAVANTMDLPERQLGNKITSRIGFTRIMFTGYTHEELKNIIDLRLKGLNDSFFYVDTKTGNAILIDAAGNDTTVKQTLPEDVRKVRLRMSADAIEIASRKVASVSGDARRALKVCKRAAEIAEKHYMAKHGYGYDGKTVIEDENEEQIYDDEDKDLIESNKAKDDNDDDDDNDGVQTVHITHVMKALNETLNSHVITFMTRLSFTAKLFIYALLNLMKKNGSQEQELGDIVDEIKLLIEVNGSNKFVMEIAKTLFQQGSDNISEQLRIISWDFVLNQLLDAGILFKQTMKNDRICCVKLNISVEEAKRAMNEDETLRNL

[3] = molecular target: T3, Orc3, subunit of S. cerevisiae ORC (S. cerevisiae, UniProt P54790 1-616)
T3 construct: Orc3, S. cerevisiae, as the Orc3 chain of m1; Stood in the assay as a subunit of the whole ORC; written on its own for the contacts seen in the structure; source: purified as part of ORC, as described previously with minor modifications
T3 sequence: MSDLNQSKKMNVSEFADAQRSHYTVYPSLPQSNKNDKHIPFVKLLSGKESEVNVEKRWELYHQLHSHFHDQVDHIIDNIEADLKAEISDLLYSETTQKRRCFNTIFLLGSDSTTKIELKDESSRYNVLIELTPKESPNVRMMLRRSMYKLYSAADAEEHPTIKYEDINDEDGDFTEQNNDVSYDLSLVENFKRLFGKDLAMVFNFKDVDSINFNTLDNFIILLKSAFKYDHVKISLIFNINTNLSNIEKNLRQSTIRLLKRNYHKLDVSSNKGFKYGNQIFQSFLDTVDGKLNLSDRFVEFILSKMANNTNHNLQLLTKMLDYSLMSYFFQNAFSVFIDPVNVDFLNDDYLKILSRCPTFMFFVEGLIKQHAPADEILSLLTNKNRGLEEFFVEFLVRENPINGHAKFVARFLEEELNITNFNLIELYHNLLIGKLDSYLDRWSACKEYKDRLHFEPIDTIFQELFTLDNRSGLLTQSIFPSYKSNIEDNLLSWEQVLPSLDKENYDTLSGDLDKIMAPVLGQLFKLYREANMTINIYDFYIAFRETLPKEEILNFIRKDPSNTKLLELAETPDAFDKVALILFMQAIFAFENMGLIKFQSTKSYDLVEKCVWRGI

[4] = molecular target: B2

B1: Cdc6 (replication initiator), S. cerevisiae, wild type (natural protein)
chain: MSAIPITPTKRIRRNLFDDAPATPPRPLKRKKLQFTDVTPESSPEKLQFGSQSIFLRTKALLQKSSELVNLNSSDGALPARTAEYEQVMNFLAKAISEHRSDSLYITGPPGTGKTAQLDMIIRQKFQSLPLSLSTPRSKDVLRHTNPNLQNLSWFELPDGRLESVAVTSINCISLGEPSSIFQKIFDSFQDLNGPTLQIKNMQHLQKFLEPYHKKTTFVVVLDEMDRLLHANTSETQSVRTILELFLLAKLPTVSFVLIGMANSLDMKDRFLSRLNLDRGLLPQTIVFQPYTAEQMYEIVIQKMSSLPTIIFQPMAIKFAAKKCAGNTGDLRKLFDVLRGSIEIYELEKRFLLSPTRGSLNSAQVPLTPTTSPVKKSYPEPQGKIGLNYIAKVFSKFVNNNSTRTRIAKLNIQQKLILCTIIQSLKLNSDATIDESFDHYIKAITKTDTLAPLQRNEFLEICTILETCGLVSIKKTKCKGKTKRFVDKIDVDLDMREFYDEMTKISILKPFLH
notes: Cdc6, S. cerevisiae; also called yeast Cdc6; source: purified as described previously, with minor modifications (lysis buffer with 500 mM potassium phosphate)
binding result [1]: binds
binding result [2]: binds

B2
binding result [2]: binds

B3: Orc5, subunit of S. cerevisiae ORC (natural protein)
chain: MNVTTPEVAFREYQTNCLASYISADPDITPSNLILQGYSGTGKTYTLKKYFNANPNLHAVWLEPVELVSWKPLLQAIARTVQYKLKTLYPNIPTTDYDPLQVEEPFLLVKTLHNIFVQYESLQEKTCLFLILDGFDSLQDLDAALFNKYIKLNELLPKDSKINIKFIYTMLETSFLQRYSTHCIPTVMFPRYNVDEVSTILVMSRCGELMEDSCLRKRIIEEQITDCTDDQFQNVAANFIHLIVQAFHSYTGNDIFALNDLIDFKWPKYVSRITKENIFEPLALYKSAIKLFLSTDDNLSENGQGESAITTNRDDLENSQTYDLSIISKYLLIASYICSYLEPRYDASIFSRKTRIIQGRAAYGRRKKKEVNPRYLQPSLFAIERLLAIFQAIFPIQGKAESGSLSALREESLMKANIEVFQNLSELHTLKLIATTMNKNIDYLSPKVRWKVNVPWEIIKEISESVHFNISDYFSDIHE
notes: Orc5, S. cerevisiae, as the Orc5 chain of m1; Stood in the assay as a subunit of the whole ORC; written on its own for the contacts seen in the structure; source: purified as part of ORC, as described previously with minor modifications
binding result [3]: binds
binding result [4]: binds
